B1: Forkhead box protein E1 (Homo sapiens), O00358 (parent)
chain: MTAESGPPPPQPEVLATVKEERGETAAGAGVPGEATGRGAGGRRRKRPLQRGKPPYSYIALIAMAIAHAPERRLTLGGIYKFITERFPFYRDNPKKWQNSIRHNLTLNDCFLKIPREAGRPGKGNYWALDPNAEDMFESGSFLRRRKRFKRSDLSTYPAYMHDAAAAAAAAAAAAAAAAIFPGAVPAARPPYPGAVYAGYAPPSLAAPPPVYYPAASPGPCRVFGLVPERPLSPELGPAPSGPGGSCAFASAGAPATTTGYQPAGCTGARPANPSAYAAAYAGPDGAYPQGAGSAIFAAAGRLAGPASPPAGGSSGGVETTVDFYGRTSPGQFGALGACYNPGGQLGGASAGAYHARHAAAYPGGIDRFVSAM
partner: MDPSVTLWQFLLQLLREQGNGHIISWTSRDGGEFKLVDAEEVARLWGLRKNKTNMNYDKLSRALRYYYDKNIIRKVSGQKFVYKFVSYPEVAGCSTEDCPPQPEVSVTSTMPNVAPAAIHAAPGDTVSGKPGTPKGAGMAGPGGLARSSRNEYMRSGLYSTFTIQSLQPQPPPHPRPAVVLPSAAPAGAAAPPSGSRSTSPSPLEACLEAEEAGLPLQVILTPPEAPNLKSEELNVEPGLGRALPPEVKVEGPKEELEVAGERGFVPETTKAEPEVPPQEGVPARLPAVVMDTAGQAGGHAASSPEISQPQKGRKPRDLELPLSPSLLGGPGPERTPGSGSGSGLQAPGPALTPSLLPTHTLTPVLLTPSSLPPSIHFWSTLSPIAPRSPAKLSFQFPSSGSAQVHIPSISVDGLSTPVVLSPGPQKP

Variants of: B1
Settings: with elk1_human ELK1, P19419

Row | effect of a mutation on the interaction | Variant
1 | with no effect | A65V
